Tests used:
HeLa Kyoto [1] = assay: solubility in G1/S (NP-40 vs SDS abundance) (log2 ratio); higher = more soluble; conditions: cell cycle stage: G1/S
HeLa Kyoto [2] = assay: thermal stability score vs G1/S (z-score of summed log2 fold changes over temperatures); higher = more thermally stable than in G1/S
HeLa Kyoto [3] = assay: solubility change mitosis vs G1/S (difference of NP-40 vs SDS log2 ratios) (log2 ratio difference); higher = more soluble in mitosis
HeLa Kyoto [4] = assay: melting temperature (median over replicates), in situ; higher = more thermally stable
[5] = cell cycle stage: early G1 (4.5 h after nocodazole release)
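Throughout, for melting temperature (median over replicates), in situ: HeLa Kyoto cells synchronized by double thymidine or nocodazole block, proteins quantified by TMT10plex mass spectrometry, three independent biological replicates.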
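Throughout, for solubility change mitosis vs G1/S (difference of NP-40 vs SDS log2 ratios): synchronized HeLa Kyoto cells (double thymidine block for G1/S, nocodazole release for mitosis), protein amounts in NP-40 versus SDS lysates quantified by mass spectrometry, three biological replicates.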
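Throughout, for solubility in G1/S (NP-40 vs SDS abundance): HeLa Kyoto cells arrested at G1/S by double thymidine block, proteins quantified by TMT10plex mass spectrometry in mild NP-40 versus SDS extracts, three biological replicates.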
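Throughout, for thermal stability score vs G1/S (z-score of summed log2 fold changes over temperatures): synchronized HeLa Kyoto cells, proteins quantified by TMT10plex mass spectrometry, three biological replicates, mitosis taken 0.5 h after nocodazole release, G1/S directly after double thymidine block.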

| Sequence | solubility in G1/S (log2) (HeLa Kyoto [1]) | thermal stability score (HeLa Kyoto [2]; [5]) | thermal stability score (HeLa Kyoto [2]; cell cycle stage: mitosis) | solubility change mitosis (log2) (HeLa Kyoto [3]) | melting temperature (HeLa Kyoto [4]; cell cycle stage: G1/S) [°C] | melting temperature (HeLa Kyoto [4]; cell cycle stage: mitosis) [°C] |
| --- | --- | --- | --- | --- | --- | --- |
| MRSGGRGRPRLRLGERGLMEPLLPPKRRLLPRVRLLPLLLALAVGSAFYTIWSGWHRRTEELPLGRELRVPLIGSLPEARLRRVVGQLDPQRLWSTYLRPLLVVRTPGSPGNLQVRKFLEATLRSLTAGWHVELDPFTASTPLGPVDFGNVVATLDPRAARHLTLACHYDSKLFPPGSTPFVGATDSAVPCALLLELAQALDLELSRAKKQAAPVTLQLLFLDGEEALKEWGPKDSLYGSRHLAQLMESIPHSPGPTRIQAIELFMLLDLLGAPNPTFYSHFPRTVRWFHRLRSIEKRLHRLNLLQSHPQEVMYFQPGEPFGSVEDDHIPFLRRGVPVLHLISTPFPAVWHTPADTEVNLHPPTVHNLCRILAVFLAEYLGL [QPCTL] | -0.29 | 3.48 | 4.18 | 0.00122 | 51.9 | 52.7 |
| MRSIRSFANDDRHVMVKHSTIYPSPEELEAVQNMVSTVECALKHVSDWLDETNKGTKTEGETEVKKDEAGENYSKDQGGRTLCGVMRIGLVAKGLLIKDDMDLELVLMCKDKPTETLLNTVKDNLPIQIQKLTEEKYQVEQCVNEASIIIRNTKEPTLTLKVILTSPLIRDELEKKDGENVSMKDPPDLLDRQKCLNALASLRHAKWFQARANGLKSCVIVLRILRDLCNRVPTWAPLKGWPLELICEKSIGTCNRPLGAGEALRRVMECLASGILLPGGPGLHDPCERDPTDALSYMTIQQKEDITHSAQHALRLSAFGQIYKVLEMDPLPSSKPFQKYSWSVTDKEGAGSSALKRPFEDGLGDDKDPNKKMKRNLRKILDSKAIDLMNALMRLNQIRPGLQYKLLSQSGPVHAPVFTMSVDVDGTTYEASGPSKKTAKLHVAVKVLQAMGYPTGFDADIECMSSDEKSDNESKNETVSSNSSNNTGNSTTETSSTLEVRTQGPILTASGKNPVMELNEKRRGLKYELISETGGSHDKRFVMEVEVDGQKFRGAGPNKKVAKASAALAALEKLFSGPNAANNKKKKIIPQAKGVVNTAVSAAVQAVRGRGRGTLTRGAFVGATAAPGYIAPGYGTPYGYSTAAPAYGLPKRMVLLPVMKFPTYPVPHYSFF [STRBP] | -0.314 | -0.506 | -0.00226 | -0.0522 | 50.5 | 52.5 |
| MRSRVAVRACHKVCRCLLSGFGGRVDAGQPELLTERSSPKGGHVKSHAELEGNGEHPEAPGSGEGSEALLEICQRRHFLSGSKQQLSRDSLLSGCHPGFGPLGVELRKNLAAEWWTSVVVFREQVFPVDALHHKPGPLLPGDSAFRLVSAETLREILQDKELSKEQLVAFLENVLKTSGKLRENLLHGALEHYVNCLDLVNKRLPYGLAQIGVCFHPVFDTKQIRNGVKSIGEKTEASLVWFTPPRTSNQWLDFWLRHRLQWWRKFAMSPSNFSSSDCQDEEGRKGNKLYYNFPWGKELIETLWNLGDHELLHMYPGNVSKLHGRDGRKNVVPCVLSVNGDLDRGMLAYLYDSFQLTENSFTRKKNLHRKVLKLHPCLAPIKVALDVGRGPTLELRQVCQGLFNELLENGISVWPGYLETMQSSLEQLYSKYDEMSILFTVLVTETTLENGLIHLRSRDTTMKEMMHISKLKDFLIKYISSAKNV [POLG2] | -0.0655 | 0.753 | 1.26 | 0.206 |  | 54.6 |
| MRTDSGARLEEGHLRPPRALPPVPSQDDIPLSRPKKKKPRTKNTPASASLEGLAQTAGRRPSEGNEPSTKELKEHPEAPVQRRQKKTRLPLELETSSTQKKSSSSSLLRNENGIDAEPAEEAVIQKPRRKTKKTQPAELQYANELGVEDEDIITDEQTTVEQQSVFTAPTGISQPVGKVFVEKSRRFQAADRSELIKTTENIDVSMDVKPSWTTRDVALTVHRAFRMIGLFSHGFLAGCAVWNIVVIYVLAGDQLSNLSNLLQQYKTLAYPFQSLLYLLLALSTISAFDRIDFAKISVAIRNFLALDPTALASFLYFTALILSLSQQMTSDRIHLYTPSSVNGSLWEAGIEEQILQPWIVVNLVVALLVGLSWLFLSYRPGMDLSEELMFSSEVEEYPDKEKEIKASS [TMEM237] | -0.0506 | -4.81 | -5.57 | -0.0698 | 54.9 | 55.4 |
| MSAEVKVTGQNQEQFLLLAKSAKGAALATLIHQVLEAPGVYVFGELLDMPNVRELAESDFASTFRLLTVFAYGTYADYLAEARNLPPLTEAQKNKLRHLSVVTLAAKVKCIPYAVLLEALALRNVRQLEDLVIEAVYADVLRGSLDQRNQRLEVDYSIGRDIQRQDLSAIARTLQEWCVGCEVVLSGIEEQVSRANQHKEQQLGLKQQIESEVANLKKTIKVTTAAAAAATSQDPEQHLTELREPAPGTNQRQPSKKASKGKGLRGSAKIWSKSN [COPS7A] | 0.458 | -1.47 | -1.53 | 0.216 | 53.9 | 54 |
| MSAFDTNPFADPVDVNPFQDPSVTQLTNAPQGGLAEFNPFSETNAATTVPVTQLPGSSQPAVLQPSVEPTQPTPQAVVSAAQAGLLRQQEELDRKAAELERKERELQNTVANLHVRQNNWPPLPSWCPVKPCFYQDFSTEIPADYQRICKMLYYLWMLHSVTLFLNLLACLAWFSGNSSKGVDFGLSILWFLIFTPCAFLCWYRPIYKAFRSDNSFSFFVFFFVFFCQIGIYIIQLVGIPGLGDSGWIAALSTLDNHSLAISVIMMVVAGFFTLCAVLSVFLLQRVHSLYRRTGASFQQAQEEFSQGIFSSRTFHRAASSAAQGAFQGN [SCAMP2] | 0.177 | -1.72 | -3.07 | -0.103 | 58.4 | 56.6 |
| MSAPDEGRRDPPKPKGKTLGSFFGSLPGFSSARNLVANAHSSARARPAADPTGAPAAEAAQPQAQVAAHPEQTAPWTEKELQPSEKMVSGAKDLVCSKMSRAKDAVSSGVASVVDVAKGVVQGGLDTTRSALTGTKEVVSSGVTGAMDMAKGAVQGGLDTSKAVLTGTKDTVSTGLTGAVNVAKGTVQAGVDTTKTVLTGTKDTVTTGVMGAVNLAKGTVQTGVETSKAVLTGTKDAVSTGLTGAVNVARGSIQTGVDTSKTVLTGTKDTVCSGVTGAMNVAKGTIQTGVDTSKTVLTGTKDTVCSGVTGAMNVAKGTIQTGVDTSKTVLTGTKDTVCSGVTGAMNVAKGTIQTGVDTTKTVLTGTKNTVCSGVTGAVNLAKEAIQGGLDTTKSMVMGTKDTMSTGLTGAANVAKGAMQTGLNTTQNIATGTKDTVCSGVTGAMNLARGTIQTGVDTTKIVLTGTKDTVCSGVTGAANVAKGAVQGGLDTTKSVLTGTKDAVSTGLTGAVNVAKGTVQTGVDTTKTVLTGTKDTVCSGVTSAVNVAKGAVQGGLDTTKSVVIGTKDTMSTGLTGAANVAKGAVQTGVDTAKTVLTGTKDTVTTGLVGAVNVAKGTVQTGMDTTKTVLTGTKDTIYSGVTSAVNVAKGAVQTGLKTTQNIATGTKNTFGSGVTSAVNVAKGAAQTGVDTAKTVLTGTKDTVTTGLMGAVNVAKGTVQTSVDTTKTVLTGTKDTVCSGVTGAANVAKGAIQGGLDTTKSVLTGTKDAVSTGLTGAVKLAKGTVQTGMDTTKTVLTGTKDAVCSGVTGAANVAKGAVQMGVDTAKTVLTGTKDTVCSGVTGAANVAKGAVQTGLKTTQNIATGTKNTLGSGVTGAAKVAKGAVQGGLDTTKSVLTGTKDAVSTGLTGAVNLAKGTVQTGVDTSKTVLTGTKDTVCSGVTGAVNVAKGTVQTGVDTAKTVLSGAKDAVTTGVTGAVNVAKGTVQTGVDASKAVLMGTKDTVFSGVTGAMSMAKGAVQGGLDTTKTVLTGTKDAVSAGLMGSGNVATGATHTGLSTFQNWLPSTPATSWGGLTSSRTTDNGGEQTALSPQEAPFSGISTPPDVLSVGPEPAWEAAATTKGLATDVATFTQGAAPGREDTGLLATTHGPEEAPRLAMLQNELEGLGDIFHPMNAEEQAQLAASQPGPKVLSAEQGSYFVRLGDLGPSFRQRAFEHAVSHLQHGQFQARDTLAQLQDCFRLIEKAQQAPEGQPRLDQGSGASAEDAAVQEERDAGVLSRVCGLLRQLHTAYSGLVSSLQGLPAELQQPVGRARHSLCELYGIVASAGSVEELPAERLVQSREGVHQAWQGLEQLLEGLQHNPPLSWLVGPFALPAGGQ [PLIN4] | 0.21 | 1.29 | 2.31 | -0.0221 | 52.4 | 52.3 |
| MSAPSEEEEYARLVMEAQPEWLRAEVKRLSHELAETTREKIQAAEYGLAVLEEKHQLKLQFEELEVDYEAIRSEMEQLKEAFGQAHTNHKKVAADGESREESLIQESASKEQYYVRKVLELQTELKQLRNVLTNTQSENERLASVAQELKEINQNVEIQRGRLRDDIKEYKFREARLLQDYSELEEENISLQKQVSVLRQNQVEFEGLKHEIKRLEEETEYLNSQLEDAIRLKEISERQLEEALETLKTEREQKNSLRKELSHYMSINDSFYTSHLHVSLDGLKFSDDAAEPNNDAEALVNGFEHGGLAKLPLDNKTSTPKKEGLAPPSPSLVSDLLSELNISEIQKLKQQLMQMEREKAGLLATLQDTQKQLEHTRGSLSEQQEKVTRLTENLSALRRLQASKERQTALDNEKDRDSHEDGDYYEVDINGPEILACKYHVAVAEAGELREQLKALRSTHEAREAQHAEEKGRYEAEGQALTEKVSLLEKASRQDRELLARLEKELKKVSDVAGETQGSLSVAQDELVTFSEELANLYHHVCMCNNETPNRVMLDYYREGQGGAGRTSPGGRTSPEARGRRSPILLPKGLLAPEAGRADGGTGDSSPSPGSSLPSPLSDPRREPMNIYNLIAIIRDQIKHLQAAVDRTTELSRQRIASQELGPAVDKDKEALMEEILKLKSLLSTKREQITTLRTVLKANKQTAEVALANLKSKYENEKAMVTETMMKLRNELKALKEDAATFSSLRAMFATRCDEYITQLDEMQRQLAAAEDEKKTLNSLLRMAIQQKLALTQRLELLELDHEQTRRGRAKAAPKTKPATPSL [BICD2] | 0.628 | -0.115 | 0.199 | 0.0849 | 49.7 | 49.1 |
| MSASVVSVISRFLEEYLSSTPQRLKLLDAYLLYILLTGALQFGYCLLVGTFPFNSFLSGFISCVGSFILAVCLRIQINPQNKADFQGISPERAFADFLFASTILHLVVMNFVG [DAD1] | -0.0329 | 0.505 | -0.552 | -0.257 | 54.5 | 54.2 |
| MSCAGAAAAPRLWRLRPGARRSLSAYGRRTSVRFRSSGMTLDNISRAAVDRIIRVDHAGEYGANRIYAGQMAVLGRTSVGPVIQKMWDQEKDHLKKFNELMVTFRVRPTVLMPLWNVLGFALGAGTALLGKEGAMACTVAVEESIAHHYNNQIRTLMEEDPEKYEELLQLIKKFRDEELEHHDIGLDHDAELAPAYAVLKSIIQAGCRVAIYLSERL [COQ7] | -0.0496 | -2.12 | -0.639 | -0.0504 | 56.1 | 53.4 |
| MSCPVPACCALLLVLGLCRARPRNALLLLADDGGFESGAYNNSAIATPHLDALARRSLLFRNAFTSVSSCSPSRASLLTGLPQHQNGMYGLHQDVHHFNSFDKVRSLPLLLSQAGVRTGIIGKKHVGPETVYPFDFAYTEENGSVLQVGRNITRIKLLVRKFLQTQDDRPFFLYVAFHDPHRCGHSQPQYGTFCEKFGNGESGMGRIPDWTPQAYDPLDVLVPYFVPNTPAARADLAAQYTTVGRMDQGVGLVLQELRDAGVLNDTLVIFTSDNGIPFPSGRTNLYWPGTAEPLLVSSPEHPKRWGQVSEAYVSLLDLTPTILDWFSIPYPSYAIFGSKTIHLTGRSLLPALEAEPLWATVFGSQSHHEVTMSYPMRSVQHRHFRLVHNLNFKMPFPIDQDFYVSPTFQDLLNRTTAGQPTGWYKDLRHYYYRARWELYDRSRDPHETQNLATDPRFAQLLEMLRDQLAKWQWETHDPWVCAPDGVLEEKLSPQCQPLHNEL [SGSH] | 0.401 | -1.28 | -1.81 | -0.261 | 53.5 | 58 |

Source: the supplement of paper PMC5998384
